Assays:
[1] = molecular target: Ebola-Zaire-sGP: Soluble glycoprotein (sGP) released from infected cells (Ebola, species Zaire ebolavirus) (UniProt P60170)
Sequence of Ebola-Zaire-sGP: Soluble glycoprotein (sGP) released from infected cells (Ebola, species Zaire ebolavirus) (P60170 33-324 limits assumed): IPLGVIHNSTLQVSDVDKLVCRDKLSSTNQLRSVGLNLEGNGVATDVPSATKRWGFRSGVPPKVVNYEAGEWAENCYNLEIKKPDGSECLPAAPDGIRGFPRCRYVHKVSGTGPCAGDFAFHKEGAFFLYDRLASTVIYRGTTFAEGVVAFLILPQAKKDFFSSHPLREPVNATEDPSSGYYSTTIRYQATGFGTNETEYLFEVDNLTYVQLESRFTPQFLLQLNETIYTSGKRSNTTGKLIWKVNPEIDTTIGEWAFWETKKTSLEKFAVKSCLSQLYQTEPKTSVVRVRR

Sequence of Galanthus nivalis agglutinin (GNA) (P30617 24-128 limits assumed): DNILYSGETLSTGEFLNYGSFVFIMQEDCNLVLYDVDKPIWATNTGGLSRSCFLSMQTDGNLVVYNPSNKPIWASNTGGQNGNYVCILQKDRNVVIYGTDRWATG

Substance: Galanthus nivalis agglutinin (GNA) (from UniProt P30617 24-128)
- % Removal (run of 3 hours) (Marburg-GP (Marburg)): 60%
- % Removal at 6 hours [1]: 97%

From patent US20240399042A1
